In US20180155451A1 (published 2018):

T1: FcγRIIa R (human FcγRIIa, allotype R, Arg at position 131), extracellular domain with C-terminal His tag (human, UniProt P12318 34-217)
T1 construct: extracellular domain; expressed in FreeStyle293 cells; analyte in Biacore; also called 2aR; FcgRIIa R
T1 sequence (looked up): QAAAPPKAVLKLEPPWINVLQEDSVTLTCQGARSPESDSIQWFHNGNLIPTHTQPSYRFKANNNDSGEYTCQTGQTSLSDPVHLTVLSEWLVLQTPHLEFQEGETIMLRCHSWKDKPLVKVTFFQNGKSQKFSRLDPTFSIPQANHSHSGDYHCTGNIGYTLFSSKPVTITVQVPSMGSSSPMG

B1: GpH7-B3 variant P271_09D/GpL16-k0 (antibody, human IgG1, kappa)
heavy: not shown
light: DIVMTQSPLSLPVTPGEPASISCQASESLVHSNRNTYLHWYLQKPGQSPQLLIYKVSNRFSGVPDRFSGSGSGTDFTLKISRVEAEDVGVYYCSQNTHVPPTFGQGTKVEIERTVAAPSVFIFPPSDEQLKSGTASVVCLLNNFYPREAKVQWKVDNALQSGNSQESVTEQDSKDSTYSLSSTLTLSKADYEKHKVYACEVTHQGLSSPVTKSFNRGEC
notes: homodimerized antibody, mutation in both H chains; also called Ho Ab
B2: GpH7-B3 variant P331_14T/GpL16-k0 (antibody, human IgG1, kappa)
heavy: not shown
light: B1 light
notes: as for B1
B3: GpH7-B3 variant Y296_04F/GpL16-k0 (antibody, human IgG1, kappa)
heavy: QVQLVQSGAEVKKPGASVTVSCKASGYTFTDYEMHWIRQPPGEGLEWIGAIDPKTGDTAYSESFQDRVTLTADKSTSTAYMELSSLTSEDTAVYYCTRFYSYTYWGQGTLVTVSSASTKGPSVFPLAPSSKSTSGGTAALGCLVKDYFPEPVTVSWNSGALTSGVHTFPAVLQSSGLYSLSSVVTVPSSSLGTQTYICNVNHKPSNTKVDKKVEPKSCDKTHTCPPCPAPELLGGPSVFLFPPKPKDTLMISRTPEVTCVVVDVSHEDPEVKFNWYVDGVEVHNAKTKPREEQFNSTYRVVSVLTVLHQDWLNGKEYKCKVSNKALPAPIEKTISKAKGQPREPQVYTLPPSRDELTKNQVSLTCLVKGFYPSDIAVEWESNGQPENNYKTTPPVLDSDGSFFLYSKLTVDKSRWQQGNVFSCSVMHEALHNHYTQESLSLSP
light: B1 light
notes: as for B1
B4: GpH7-B3 variant T335_18N/GpL16-k0 (antibody, human IgG1, kappa)
heavy: not shown
light: B1 light
notes: as for B1
B5: GpH7-B3 variant T335_10E/GpL16-k0 (antibody, human IgG1, kappa)
heavy: not shown
light: B1 light
notes: as for B1
B6: GpH7-B3 variant S239_14T/GpL16-k0 (antibody, human IgG1, kappa)
heavy: not shown
light: B1 light
notes: as for B1
B7: GpH7-B3 variant Y296_10E/GpL16-k0 (antibody, human IgG1, kappa)
heavy: not shown
light: B1 light
notes: as for B1
B8: GpH7-B3 variant S239_07I/GpL16-k0 (antibody, human IgG1, kappa)
heavy: not shown
light: B1 light
notes: as for B1
B9: GpH7-B3 variant P331_03V/GpL16-k0 (antibody, human IgG1, kappa)
heavy: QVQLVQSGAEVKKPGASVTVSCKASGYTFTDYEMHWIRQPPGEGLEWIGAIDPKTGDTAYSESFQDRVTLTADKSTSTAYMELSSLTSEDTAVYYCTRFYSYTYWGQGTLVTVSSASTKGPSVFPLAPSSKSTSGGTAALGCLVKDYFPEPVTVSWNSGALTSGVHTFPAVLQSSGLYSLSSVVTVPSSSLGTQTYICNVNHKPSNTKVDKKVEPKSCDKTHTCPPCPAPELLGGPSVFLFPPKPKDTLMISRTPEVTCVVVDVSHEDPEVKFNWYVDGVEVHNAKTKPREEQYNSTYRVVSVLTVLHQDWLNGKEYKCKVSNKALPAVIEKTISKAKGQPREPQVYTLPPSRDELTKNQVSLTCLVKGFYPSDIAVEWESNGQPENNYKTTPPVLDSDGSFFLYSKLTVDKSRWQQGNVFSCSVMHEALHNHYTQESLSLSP
light: B1 light
notes: as for B1
B10: GpH7-B3 variant T335_01G/GpL16-k0 (antibody, human IgG1, kappa)
heavy: not shown
light: B1 light
notes: as for B1
B11: GpH7-B3 variant T335_13S/GpL16-k0 (antibody, human IgG1, kappa)
heavy: not shown
light: B1 light
notes: as for B1
B12: GpH7-B3 variant S337_12R/GpL16-k0 (antibody, human IgG1, kappa)
heavy: not shown
light: B1 light
notes: as for B1
B13: GpH7-B3 variant P331_10E/GpL16-k0 (antibody, human IgG1, kappa)
heavy: not shown
light: B1 light
notes: as for B1
B14: GpH7-B3 variant S337_04F/GpL16-k0 (antibody, human IgG1, kappa)
heavy: not shown
light: B1 light
notes: as for B1
B15: GpH7-B3 variant T335_05P/GpL16-k0 (antibody, human IgG1, kappa)
heavy: not shown
light: B1 light
notes: as for B1
B16: GpH7-B3 variant S324_06M/GpL16-k0 (antibody, human IgG1, kappa)
heavy: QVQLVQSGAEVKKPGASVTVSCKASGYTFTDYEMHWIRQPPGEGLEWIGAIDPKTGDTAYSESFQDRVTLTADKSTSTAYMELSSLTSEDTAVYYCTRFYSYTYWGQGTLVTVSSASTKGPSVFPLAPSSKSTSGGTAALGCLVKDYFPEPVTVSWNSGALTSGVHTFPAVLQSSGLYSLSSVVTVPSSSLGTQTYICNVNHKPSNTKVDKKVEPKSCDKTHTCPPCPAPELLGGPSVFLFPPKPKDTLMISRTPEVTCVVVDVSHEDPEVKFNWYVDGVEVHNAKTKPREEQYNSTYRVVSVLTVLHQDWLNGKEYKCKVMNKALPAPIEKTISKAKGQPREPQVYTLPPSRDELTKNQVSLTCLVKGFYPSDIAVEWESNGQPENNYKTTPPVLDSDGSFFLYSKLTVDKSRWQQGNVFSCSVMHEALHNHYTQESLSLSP
light: B1 light
notes: as for B1
B17: GpH7-B3 variant P331_08L/GpL16-k0 (antibody, human IgG1, kappa)
heavy: not shown
light: B1 light
notes: as for B1
B18: GpH7-B3 variant T335_07I/GpL16-k0 (antibody, human IgG1, kappa)
heavy: not shown
light: B1 light
notes: as for B1
B19: GpH7-B3 variant S337_08L/GpL16-k0 (antibody, human IgG1, kappa)
heavy: not shown
light: B1 light
notes: as for B1
B20: GpH7-B3 variant Q295_10E/GpL16-k0 (antibody, human IgG1, kappa)
heavy: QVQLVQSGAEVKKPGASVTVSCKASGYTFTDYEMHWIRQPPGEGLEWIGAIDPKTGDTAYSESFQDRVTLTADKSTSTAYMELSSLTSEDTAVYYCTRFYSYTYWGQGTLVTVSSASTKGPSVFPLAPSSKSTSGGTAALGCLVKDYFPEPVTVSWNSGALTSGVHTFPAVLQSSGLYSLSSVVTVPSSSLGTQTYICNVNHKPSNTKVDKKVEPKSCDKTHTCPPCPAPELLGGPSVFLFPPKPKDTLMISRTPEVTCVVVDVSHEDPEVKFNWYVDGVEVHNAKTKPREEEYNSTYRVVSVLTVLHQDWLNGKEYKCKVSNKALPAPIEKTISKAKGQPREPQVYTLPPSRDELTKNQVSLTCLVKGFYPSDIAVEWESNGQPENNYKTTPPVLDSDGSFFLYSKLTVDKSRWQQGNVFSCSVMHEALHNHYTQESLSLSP
light: B1 light
notes: as for B1
B21: GpH7-B3 variant S337_09D/GpL16-k0 (antibody, human IgG1, kappa)
heavy: not shown
light: B1 light
notes: as for B1
B22: GpH7-B3 variant T335_12R/GpL16-k0 (antibody, human IgG1, kappa)
heavy: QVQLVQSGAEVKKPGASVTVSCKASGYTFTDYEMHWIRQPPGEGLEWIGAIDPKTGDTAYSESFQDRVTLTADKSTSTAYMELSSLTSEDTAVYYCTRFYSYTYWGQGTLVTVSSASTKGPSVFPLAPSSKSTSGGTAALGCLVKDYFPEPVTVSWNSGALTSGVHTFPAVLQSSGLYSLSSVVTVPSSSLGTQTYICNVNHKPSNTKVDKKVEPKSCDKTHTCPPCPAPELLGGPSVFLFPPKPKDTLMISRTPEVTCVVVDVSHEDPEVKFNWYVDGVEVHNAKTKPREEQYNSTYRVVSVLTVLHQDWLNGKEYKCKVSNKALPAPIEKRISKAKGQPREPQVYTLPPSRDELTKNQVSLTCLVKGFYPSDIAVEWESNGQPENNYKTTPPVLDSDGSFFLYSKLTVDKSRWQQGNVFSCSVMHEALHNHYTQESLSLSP
light: B1 light
notes: as for B1
B23: GpH7-B3 variant T335_02A/GpL16-k0 (antibody, human IgG1, kappa)
heavy: not shown
light: B1 light
notes: as for B1
B24: GpH7-B3 variant S298_06M/GpL16-k0 (antibody, human IgG1, kappa)
heavy: not shown
light: B1 light
notes: as for B1
B25: GpH7-B3 variant S267_06M/GpL16-k0 (antibody, human IgG1, kappa)
heavy: not shown
light: B1 light
notes: as for B1
B26: GpH7-B3 variant Y296_06M/GpL16-k0 (antibody, human IgG1, kappa)
heavy: not shown
light: B1 light
notes: as for B1
B27: GpH7-B3 variant S267_09D/GpL16-k0 (antibody, human IgG1, kappa)
heavy: not shown
light: B1 light
notes: as for B1
B28: GpH7-B3 variant V266_06M/GpL16-k0 (antibody, human IgG1, kappa)
heavy: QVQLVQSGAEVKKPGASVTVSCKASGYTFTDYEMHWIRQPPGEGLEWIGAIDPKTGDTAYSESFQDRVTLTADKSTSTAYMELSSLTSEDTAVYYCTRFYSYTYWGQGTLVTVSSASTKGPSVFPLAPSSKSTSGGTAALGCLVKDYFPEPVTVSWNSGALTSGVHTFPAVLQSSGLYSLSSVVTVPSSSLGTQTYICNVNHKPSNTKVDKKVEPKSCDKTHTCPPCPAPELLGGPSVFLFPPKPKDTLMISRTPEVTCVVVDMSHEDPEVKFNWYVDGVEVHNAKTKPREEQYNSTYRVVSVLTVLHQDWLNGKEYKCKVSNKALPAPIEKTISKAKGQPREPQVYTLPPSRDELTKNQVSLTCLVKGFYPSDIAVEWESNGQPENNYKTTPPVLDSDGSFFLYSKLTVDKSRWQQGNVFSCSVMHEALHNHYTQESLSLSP
light: B1 light
notes: as for B1
B29: GpH7-B3 variant S337_19Q/GpL16-k0 (antibody, human IgG1, kappa)
heavy: not shown
light: B1 light
notes: as for B1
B30: GpH7-B3 variant Y296_07I/GpL16-k0 (antibody, human IgG1, kappa)
heavy: not shown
light: B1 light
notes: as for B1
B31: GpH7-B3 variant S337_16H/GpL16-k0 (antibody, human IgG1, kappa)
heavy: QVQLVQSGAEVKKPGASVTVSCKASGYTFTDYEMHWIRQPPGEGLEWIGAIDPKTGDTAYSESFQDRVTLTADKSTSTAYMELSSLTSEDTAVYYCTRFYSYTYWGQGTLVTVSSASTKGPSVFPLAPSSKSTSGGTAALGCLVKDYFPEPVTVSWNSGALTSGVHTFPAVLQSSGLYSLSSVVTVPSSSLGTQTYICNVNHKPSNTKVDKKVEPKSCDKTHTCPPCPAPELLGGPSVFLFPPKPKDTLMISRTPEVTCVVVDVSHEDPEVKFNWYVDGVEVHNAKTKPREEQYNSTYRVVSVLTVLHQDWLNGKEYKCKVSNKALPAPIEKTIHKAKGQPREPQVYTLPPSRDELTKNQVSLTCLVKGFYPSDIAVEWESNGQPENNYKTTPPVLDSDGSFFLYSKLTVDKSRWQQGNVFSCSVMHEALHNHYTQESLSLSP
light: B1 light
notes: as for B1
B32: GpH7-B3 variant S337_10E/GpL16-k0 (antibody, human IgG1, kappa)
heavy: not shown
light: B1 light
notes: as for B1
B33: GpH7-B3 variant S337_07I/GpL16-k0 (antibody, human IgG1, kappa)
heavy: not shown
light: B1 light
notes: as for B1
B34: GpH7-B3 variant S298_08L/GpL16-k0 (antibody, human IgG1, kappa)
heavy: not shown
light: B1 light
notes: as for B1
B35: GpH7-B3 variant S337_03V/GpL16-k0 (antibody, human IgG1, kappa)
heavy: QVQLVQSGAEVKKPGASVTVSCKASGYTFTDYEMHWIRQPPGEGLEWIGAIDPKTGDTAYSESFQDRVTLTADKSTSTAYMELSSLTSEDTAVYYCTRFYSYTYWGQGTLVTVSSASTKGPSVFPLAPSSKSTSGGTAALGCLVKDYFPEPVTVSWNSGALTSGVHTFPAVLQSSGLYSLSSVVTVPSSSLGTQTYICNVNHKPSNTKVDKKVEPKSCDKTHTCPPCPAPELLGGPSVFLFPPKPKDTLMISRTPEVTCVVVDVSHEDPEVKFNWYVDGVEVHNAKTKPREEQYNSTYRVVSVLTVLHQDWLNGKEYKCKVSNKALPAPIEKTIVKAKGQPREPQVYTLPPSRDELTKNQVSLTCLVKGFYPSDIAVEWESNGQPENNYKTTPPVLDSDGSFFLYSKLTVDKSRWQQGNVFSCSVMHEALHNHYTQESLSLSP
light: B1 light
notes: as for B1
B36: GpH7-B3 variant P331_13S/GpL16-k0 (antibody, human IgG1, kappa)
heavy: not shown
light: B1 light
notes: as for B1
B37: GpH7-B3 variant Y296_09D/GpL16-k0 (antibody, human IgG1, kappa)
heavy: not shown
light: B1 light
notes: as for B1
B38: GpH7-B3 variant Q295_06M/GpL16-k0 (antibody, human IgG1, kappa)
heavy: not shown
light: B1 light
notes: as for B1
B39: GpH7-B3 variant S324_04F/GpL16-k0 (antibody, human IgG1, kappa)
heavy: not shown
light: B1 light
notes: as for B1
B40: GpH7-B3 variant S337_20W/GpL16-k0 (antibody, human IgG1, kappa)
heavy: not shown
light: B1 light
notes: as for B1
B41: GpH7-B3 variant S337_06M/GpL16-k0 (antibody, human IgG1, kappa)
heavy: not shown
light: B1 light
notes: as for B1
B42: GpH7-B3 variant T335_20W/GpL16-k0 (antibody, human IgG1, kappa)
heavy: not shown
light: B1 light
notes: as for B1
B43: GpH7-B3 variant S267_19Q/GpL16-k0 (antibody, human IgG1, kappa)
heavy: not shown
light: B1 light
notes: as for B1
B44: GpH7-B3 variant P331_06M/GpL16-k0 (antibody, human IgG1, kappa)
heavy: not shown
light: B1 light
notes: as for B1
B45: GpH7-B3 variant T335_15Y/GpL16-k0 (antibody, human IgG1, kappa)
heavy: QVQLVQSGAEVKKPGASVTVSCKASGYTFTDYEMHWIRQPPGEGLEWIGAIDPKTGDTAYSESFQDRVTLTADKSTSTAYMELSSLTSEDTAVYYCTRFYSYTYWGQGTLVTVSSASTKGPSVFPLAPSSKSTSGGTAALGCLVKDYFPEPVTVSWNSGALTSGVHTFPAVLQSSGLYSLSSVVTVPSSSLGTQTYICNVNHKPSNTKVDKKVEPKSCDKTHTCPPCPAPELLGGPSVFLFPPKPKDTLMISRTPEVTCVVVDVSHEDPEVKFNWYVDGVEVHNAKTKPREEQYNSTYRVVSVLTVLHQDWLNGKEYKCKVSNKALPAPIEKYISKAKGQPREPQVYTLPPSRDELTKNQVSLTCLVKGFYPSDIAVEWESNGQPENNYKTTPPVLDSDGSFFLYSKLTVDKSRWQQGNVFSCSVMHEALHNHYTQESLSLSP
light: B1 light
notes: as for B1
B46: GpH7-B3 variant S337_11K/GpL16-k0 (antibody, human IgG1, kappa)
heavy: not shown
light: B1 light
notes: as for B1
B47: GpH7-B3 variant P331_18N/GpL16-k0 (antibody, human IgG1, kappa)
heavy: not shown
light: B1 light
notes: as for B1
B48: GpH7-B3 variant S239_06M/GpL16-k0 (antibody, human IgG1, kappa)
heavy: not shown
light: B1 light
notes: as for B1
B49: GpH7-B3 variant T335_19Q/GpL16-k0 (antibody, human IgG1, kappa)
heavy: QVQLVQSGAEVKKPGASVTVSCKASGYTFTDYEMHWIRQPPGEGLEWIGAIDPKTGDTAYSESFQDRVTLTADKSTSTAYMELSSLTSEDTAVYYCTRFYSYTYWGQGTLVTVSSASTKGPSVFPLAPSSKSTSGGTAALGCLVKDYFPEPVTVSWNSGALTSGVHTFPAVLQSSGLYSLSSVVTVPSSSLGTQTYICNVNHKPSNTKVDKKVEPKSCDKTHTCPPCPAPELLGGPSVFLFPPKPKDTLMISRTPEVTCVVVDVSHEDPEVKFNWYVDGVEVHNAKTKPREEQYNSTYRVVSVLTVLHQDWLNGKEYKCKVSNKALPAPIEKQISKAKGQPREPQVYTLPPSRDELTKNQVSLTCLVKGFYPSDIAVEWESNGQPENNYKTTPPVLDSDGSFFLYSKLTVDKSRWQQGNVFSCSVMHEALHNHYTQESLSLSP
light: B1 light
notes: as for B1
B50: GpH7-B3 variant P331_09D/GpL16-k0 (antibody, human IgG1, kappa)
heavy: not shown
light: B1 light
notes: as for B1
B51: GpH7-B3 variant S337_18N/GpL16-k0 (antibody, human IgG1, kappa)
heavy: not shown
light: B1 light
notes: as for B1
B52: GpH7-B3 variant P331_07I/GpL16-k0 (antibody, human IgG1, kappa)
heavy: not shown
light: B1 light
notes: as for B1
B53: GpH7-B3 variant T335_16H/GpL16-k0 (antibody, human IgG1, kappa)
heavy: not shown
light: B1 light
notes: as for B1
B54: GpH7-B3 variant P271_10E/GpL16-k0 (antibody, human IgG1, kappa)
heavy: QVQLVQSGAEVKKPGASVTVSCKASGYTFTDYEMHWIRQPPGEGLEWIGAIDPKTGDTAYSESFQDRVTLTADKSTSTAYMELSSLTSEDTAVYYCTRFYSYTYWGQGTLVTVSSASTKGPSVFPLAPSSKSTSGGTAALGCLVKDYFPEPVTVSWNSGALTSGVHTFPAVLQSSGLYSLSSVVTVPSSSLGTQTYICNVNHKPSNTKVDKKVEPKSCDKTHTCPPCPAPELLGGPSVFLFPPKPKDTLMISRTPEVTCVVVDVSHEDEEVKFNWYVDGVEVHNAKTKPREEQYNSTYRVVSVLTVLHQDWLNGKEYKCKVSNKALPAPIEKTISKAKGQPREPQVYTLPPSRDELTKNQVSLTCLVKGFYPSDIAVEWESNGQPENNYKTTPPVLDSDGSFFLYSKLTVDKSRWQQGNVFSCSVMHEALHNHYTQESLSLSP
light: B1 light
notes: as for B1
B55: GpH7-B3 variant S337_15Y/GpL16-k0 (antibody, human IgG1, kappa)
heavy: not shown
light: B1 light
notes: as for B1

Biological target: T1, FcγRIIa R (human FcγRIIa, allotype R, …)
Assay: SPR (Biacore), relative binding vs GpH7-B3/GpL16-k0
Description: Analysis of interaction between objective antibody and the FcγR was carried out using Biacore T100 (GE Healthcare). HBS-EP+ (GE Healthcare) was used as the running buffer, and the measurement temperature was set to 25° C. Chips produced by immobilizing the antigen peptide by the amine coupling method to a Series S Sencor Chip CM5 (GE Healthcare), or alternatively, chips produced by allowing preliminarily biotinylated antigen peptides to interact with and immobilize onto a Series S Sensor Chip SA (certified) (GE Healthcare) were used. Antibodies of interest were captured onto an antigen peptide-immobilized chip, and allowed to interact to each FcγR diluted with running buffer. To regenerate and repeatedly use the chip, the antibodies captured on the chip were washed off by reacting 10 mM glycine-HCl, pH 1.5.
The FcγR-binding activity of each antibody was assessed primarily using as an indicator the FcγR-binding activity and dissociation constant for FcγR.

Binder | Ho/Con_2aR
B1 | 92.4 relative, control = 100
B2 | 80.8 relative, control = 100
B3 | 106 relative, control = 100
B4 | 100 relative, control = 100
B5 | 109 relative, control = 100
B6 | 92.3 relative, control = 100
B7 | 90.2 relative, control = 100
B8 | 85.3 relative, control = 100
B9 | 89.1 relative, control = 100
B10 | 97.7 relative, control = 100
B11 | 102 relative, control = 100
B12 | 100 relative, control = 100
B13 | 94.6 relative, control = 100
B14 | 98.3 relative, control = 100
B15 | 104 relative, control = 100
B16 | 118 relative, control = 100
B17 | 74.4 relative, control = 100
B18 | 107 relative, control = 100
B19 | 99.4 relative, control = 100
B20 | 99.2 relative, control = 100
B21 | 114 relative, control = 100
B22 | 94 relative, control = 100
B23 | 102 relative, control = 100
B24 | 102 relative, control = 100
B25 | 102 relative, control = 100
B26 | 84 relative, control = 100
B27 | 167 relative, control = 100
B28 | 146 relative, control = 100

Binder | Ho/Con_2aR
B29 | 102 relative, control = 100
B30 | 83.1 relative, control = 100
B31 | 107 relative, control = 100
B32 | 110 relative, control = 100
B33 | 103 relative, control = 100
B34 | 101 relative, control = 100
B35 | 102 relative, control = 100
B36 | 87.8 relative, control = 100
B37 | 94.5 relative, control = 100
B38 | 93.9 relative, control = 100
B39 | 101 relative, control = 100
B40 | 105 relative, control = 100
B41 | 101 relative, control = 100
B42 | 101 relative, control = 100
B43 | 110 relative, control = 100
B44 | 79.8 relative, control = 100
B45 | 107 relative, control = 100
B46 | 94.6 relative, control = 100
B47 | 76.9 relative, control = 100
B48 | 82.9 relative, control = 100
B49 | 102 relative, control = 100
B50 | 88.8 relative, control = 100
B51 | 103 relative, control = 100
B52 | 67 relative, control = 100
B53 | 102 relative, control = 100
B54 | 88.8 relative, control = 100
B55 | 100 relative, control = 100
